For this experiment, the target named is T1, TOP-2 [R828C]::3xFLAG, Q23670.
T1 chain: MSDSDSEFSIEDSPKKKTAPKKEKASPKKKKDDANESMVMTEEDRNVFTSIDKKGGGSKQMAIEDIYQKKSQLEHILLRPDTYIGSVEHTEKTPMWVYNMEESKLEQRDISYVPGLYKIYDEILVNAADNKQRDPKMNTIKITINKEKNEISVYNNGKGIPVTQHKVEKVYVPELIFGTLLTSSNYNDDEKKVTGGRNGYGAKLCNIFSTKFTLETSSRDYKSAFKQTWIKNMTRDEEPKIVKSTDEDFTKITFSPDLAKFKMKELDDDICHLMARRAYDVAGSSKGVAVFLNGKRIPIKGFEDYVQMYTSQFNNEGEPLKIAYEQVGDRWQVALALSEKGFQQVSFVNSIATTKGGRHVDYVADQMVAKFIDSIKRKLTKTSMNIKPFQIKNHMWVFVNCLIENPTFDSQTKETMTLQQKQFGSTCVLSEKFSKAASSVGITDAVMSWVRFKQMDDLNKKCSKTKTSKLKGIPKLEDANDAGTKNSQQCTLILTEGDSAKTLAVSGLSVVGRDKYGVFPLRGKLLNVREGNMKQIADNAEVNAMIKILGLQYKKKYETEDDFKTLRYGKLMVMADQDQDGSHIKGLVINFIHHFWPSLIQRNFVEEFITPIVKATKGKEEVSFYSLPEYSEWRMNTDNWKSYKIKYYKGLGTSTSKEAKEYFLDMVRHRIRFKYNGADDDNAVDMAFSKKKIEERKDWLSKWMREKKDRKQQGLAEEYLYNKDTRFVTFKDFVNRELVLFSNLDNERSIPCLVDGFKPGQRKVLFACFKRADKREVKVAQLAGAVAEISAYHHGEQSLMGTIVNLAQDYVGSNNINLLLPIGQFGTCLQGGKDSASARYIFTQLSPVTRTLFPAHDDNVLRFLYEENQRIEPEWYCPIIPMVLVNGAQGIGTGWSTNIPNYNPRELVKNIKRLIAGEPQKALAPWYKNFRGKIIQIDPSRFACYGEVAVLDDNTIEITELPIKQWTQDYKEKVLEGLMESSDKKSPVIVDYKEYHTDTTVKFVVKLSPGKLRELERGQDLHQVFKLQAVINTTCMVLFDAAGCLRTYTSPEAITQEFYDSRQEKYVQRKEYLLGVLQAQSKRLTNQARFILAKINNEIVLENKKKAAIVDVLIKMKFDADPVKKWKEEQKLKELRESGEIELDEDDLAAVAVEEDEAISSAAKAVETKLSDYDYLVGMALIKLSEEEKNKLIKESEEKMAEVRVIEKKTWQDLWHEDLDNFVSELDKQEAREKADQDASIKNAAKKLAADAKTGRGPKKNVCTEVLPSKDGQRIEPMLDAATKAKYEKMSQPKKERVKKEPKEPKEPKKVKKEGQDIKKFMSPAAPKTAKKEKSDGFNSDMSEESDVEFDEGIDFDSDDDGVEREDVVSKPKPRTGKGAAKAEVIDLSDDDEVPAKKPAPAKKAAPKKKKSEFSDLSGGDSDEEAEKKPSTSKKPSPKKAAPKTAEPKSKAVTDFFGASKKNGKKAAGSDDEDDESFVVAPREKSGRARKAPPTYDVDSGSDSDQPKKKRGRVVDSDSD
The experiment in a line: co-immunoprecipitation (anti-FLAG magnetic agarose beads) with anti-RFP immunoblot, band quantification. The conditions noted are these: chain shown with the change;; parent: est. 1.0; read off a plot. (In general: Immunoblotting shows a protein as a band on a membrane.)

B1: m1; m2 TDPT-1:G117R; TOP-2:R828C (protein)
chain: MSNSDDEIQEIEAKRQKMSQEDSEVEIEILDEPEQGKLKNSSMSDEQKLHEFAIITATDEAFAQSILQDVDWDLKKALDVFYGSEAFAEARSAAVMGASSSMASSGAAVMTAEDLKRFEVSVMSWNIDGLDGRSLLTRMKAVAHIVKNVNPDILFLQEVVDRDLAPIDKLQSLYKIYYSNKGCQYYTAILVSKMFDVEKHDVIHFQNSGMYRTLQILEGSIGGLKVFLLNTHLESTREHRPQRCAQFGFCMDKVREIIAQNPGALVFFGGDLNLRDEEVSRVPDGVKDAWEAAGSDNKTKFTWDTFKNDNKQGFHGAKMRFDRLYWSGPLDKVKFTLEGRQRIRSCLCFPSDHWAINATFFA
In the case of B1, the ratio to parent worked out at 0.33.

Source of the values: paper PMC11261448.
